According to the DeepSol protein solubility set:

Test: soluble on expression in E. coli; label from the status in PepcDB or PDB records

| Sequence | soluble on expression in E. coli |
| --- | --- |
| MKAKREALISLFHAIKEEKVDSDIIDLLLLINSIKGIYTTSSCSGRIGILEEPSLGAKPLSRWLIKVHRPMSFEEARDALKRAREGLIFLKSQPPIFHVVAETIENAKLVHEIGLASGFKYTTFKAISSRFLVEINGTEYLTVPLGKDGRIIASDEYLKFAISIGNKMLERGKSKLPRLRDNFEKIKKKLGEDPLFIQLKREILEILEHHHHHH | not soluble |
| MKALIVDDEPLARNELQYLLNLNDAIDEIEEAENIEETLEKLLYNTFDLIFLDINLMDESGIDLAQKINKMKRSPHIIFATAHEKFAVKAFELNATDYILKPFEKERINQAVNKVDMAKDKSKNKDKTITPKYIDYSDDERAQTHVLPIEVDERIHILNFTDIIALSVNNGITTIDTTKQSYETTETLNHYEKKLPSSLFIKIHRATIVNKEHIQTIEHWFNYTYQLTLTHEFKYQVSRSYMKTFKQQLGLQ | not soluble |
| MKAPELQIQQWFNSATDLTLADLRGKVIVIEAFQMLCPGCVMHGIPLAQKVRAAFPEDKVAVLGLHTVFEHHEAMTPISLKAFLHEYRIKFPVGVDQPGDGAMPRTMAAYQMRGTPSLLLIDKAGDLRAHHFGDVSELLLGAEIATLLGEAAPSVQKQAGTPQGDANCDNDGCTV | not soluble |
| MKDSKFPYYFSNALLMLVPRFVYRAQAKRLLSTLTEAEKQYCLERVNYYNKCGQPFTVDSREQSYAKIGEFKKTKGWTYFFDTRQVIRYFPSEFTFNYINGDVTHIPNVPSFIKSRPIHGDNQNSVVLKLNQIRHFKFVDDEMSYHDKKDMVAWRGVGFQPHRCKVIQAFYDHPRCNIGQTRPQEGQPWEKGFMSIEEQLQYKFLLCIEGNDVATNLKWAMSSNSLVIMSKPKYETWFMEGKLEAGIHYVEVQDDYSDLPEKMDYYLANEQEALAIIENAHQWVEQFKDKRKERLISLMVADKYFTLSHQQLEHHHHHH | soluble |
| MKEDEVNRCQIQNWYPRFKSLTIKTKFHKLPESFINYLIDDSGPFLLPHSVTNEDAMPNRVHNFEEEDDFQVPEEASDDEPLNRPSFPELEIEIRESIETLGGTIIPKLNWSSPKDAAWISPSQNLSCTCFNEIALLFRSSDSLTHDLFNAYDSCSDKVSSRPESFYLALRKWYPSLKPEMEFRCFVKSNELVGICQREVTTFYPVLLNEKDLLKGLIEEFFDDKIRFEFESENYTFDVYVTKERRVKLIDFNTWCGSTLPLMYTWEELEKIHGECDELELRIVESRLSVLPGLKTAVPYDYLDVSAGSGWAQVLKIVEEEFQKDDQSSDEVA | soluble |
| MKEFIIKANKAVTNGEINLKDLPGSSGRLDLLCRCVNSAFFLSHDMRRDTIFYSVNYGSPNPPVALKFVGSELKRVSPDERSIALFIKKALEKDASELWKESTSGIYSSKREFRDIILEKKNEGKRIFYLHLNGKPLEDFEFKNQDDEDFLFVLGDHIGIGDEDEEFLEEIGAEKISLSPLELHADHCIILVHNILDRLK | not soluble |
| MKEFWVWVEPFDRKIVSVALEAGANAVVIPEKGRVEEVKKVGRITVIAPDGDLKLGEDVVYVLIKGKEDEERAAKYPPNVKVIVETTDWTVIPLENLIAQREELYAVVKNAQEAEVALQTLEKGVKGVVLKSRDINEIKKVGQIVSEHEEKLELVTIKITKILPLGLGDRVCVDTISLLHRGEGMLVGNSSGGMFLVHAETEENPYVAARPFRVNAGAVHMYIRVPNNRTKYLCELKAGDKVMVYDYKGRGRVTYVGRAKVERRPMLLIEGRYENKKLSCILQNAETIRLTKPDGTPISVSELKEGDEVLGYVEEAGRHFGMKVEETIIEKLEHHHHHH | soluble |
| MKEIIFDDIGSYPLPEGVSREWVQNAFKTRAEDEKLFTVINDAFQQKIDAGVEVPTYPQYQDMNEQFLKVIRDSNCTDSPFEVKLECARIEELEAIETVAKAYKEKFGETLKVRICVTGPTELYLKEFGGTRYTDIYTLFAKSINRFVRNSMKSAKHFKIATVSIDEPSIGLNPELAFDENDVISALTEASKAASKWGADVEIHLHSPLYYNYACETTTINVIGVESAGTPSYLELIDKKMLEDTDSFLRIGIARTDIFSLAGILNEKYCTNIWKDQQYIPEIVSQLETPEVIEKRLKLAYRRFGSLIKYVGPDCGLGSWPNQRIAFILLSNVAQGIKNFRENLLEHHHHHH | soluble |
| MKEIILLVFLSRKEQTNRSANIFSSVLKGFEAQTIVYSLSYQKFYSNRKNKHKDETILVTAIYRCRRNPHGMQLKQCSPSVGSGAKTRTSGRLRP | not soluble |
| MKEIKFLHIADLHLDSPFIGLSTLPQPLFSAVQESTFQSLERIITIAIKEAVEFVLIAGDIYDSEDQSVRAQARFSKEMKRLEQAGIKAFIIHGNHDFIEKHKEKLQLPGNVHVFSEQVEMAAMETKNGAIVHIYGFSYGERHIRASRVNEYNKQGEADFHIGLLHGSELSSSEDHDVYAPFRIQEITKKGFDYWALGHIHKRQLLAESPSVYYPGNIQGRNRKESGEKGASIVTLSASNTTIDFIATSPIIWEEVIITLPENSEINTFYREITKLLATYQGQSNSFFLHVIVQMANKQKINTTDWLQMLQEETDLTGSTFIWVHKLTIELTNQSDLKNWHEQHLASKEITQAFEKLQDESAFYQTVEALYFESGVSRYLDDLSEEDRQLMLDAALTELGTVLKEVEGDEK | not soluble |
| MKEIYLPLHHGKAPHWLLSRMKKLAKPIVKLIVLEYGEREFLERLSNPIFFQSLSNVLGFDWNSSGVTTVLTGVLKAVINNEEFDIRIAGGKGGNALKTPEEIMNYSEQIGADGEKLVEFSRLAAKADNAALIDGYSLYHHAVIFTPRYFTVIQQGMNETERMARRYHWNVYSSVPELENVHEGIITERRENEVVNMLSDISRDAKRLCVDIVRDGSFRRDYERMISVLRWRKGLRVPKKLDWKVVERAYNLQPERFEELLLIRGFGRETIRALALVAEIIYNTEYDKTDPAKYCFAVGGKDGVPFPVRRDIYDEIIEFMRETVKQAEIGDFEKKKMLERLSRYGCDCQERRD | soluble |
| MKERIVGQSGELFCFGQMPVWKVENLPEVLLSGYSSEEGEWVCLNVLQGDVEVRAPDGSAEVWSADGGDCVFAPQQVFSVKPKTDDAEIRLSLYCAAADYFHKKYGMSATHSAVAAARDTVPAGRALDMGCGQGRNALFLGLKGFEVTAVDHNPAALANVAELAEAEGLNVRTLEYDLNAAALQGEFDYIVATVVLMFLMPQRVPDVIADMQAHTAAGGYNLIVSAMDTADFPCPMPFPFKFKEGELKDYYRDWELVEYKEELGSMHAKDENGNPIRFKFVTMLAKKPELEHHHHHH | not soluble |
| MKESMSSVDIKYITEELKDMIVGSRVEKIYHEGNEIRFKLHKTGVGRVDLLIEAGKRIHITTYVKENLQPTSFAMLLRKYLSGKFLEDIRQYEFDRVVILSFGEYFLIAELFGRGNIIFVTKDWEIIGALRYEEFKDRAIKPKIKYVFPPSRANPLKVSFEEFKEIILNSQGTEIVRALAKNFSIGGLYSEETLLRAKIDKDRKVDELSEEELRLVYDTLLTVLNDEKKPNIVYNKEGVMVDVVPIDLQWYREYTKRYYESFSEALDEYFGKLTIEKARLEKTKQLEERRKALEISLRRIEEQIKGFEKEAMTNQEKGDALYAHYSIVNEILRVISSALKQYGVEEVKKRIEEGKKAGYPWAKMIIDVTDNKVTLNLDGIKVSLDVEKSLEENAELYYERAKKAKKKLEGAKIAYEETKRKLIELEKEIERESKEINIKKITRKKKKWFE | not soluble |
| MKETIMNQKLTKRQAEVHTGRKGTAHRKKVVHTTAEDKKFQFSLKKLGVNNIPGIEEVNMFTHQGTVIHFNNPEVQASLAANTFTMTGHAETKQLTEMLLSIDHKPVLQMV | soluble |
| MKEVMLFPLTSVVLPEGKMNLRIFEPRYKRMVKECSLQNVGFGVCLVGSEGDPKDVGNVSSIGTLVRIVDFETLSDGLLGITVAGEKRFVIKRVRADSDGLRHAEVEWLDNWQTPSQQLDFGYLSQQLAQVYEQFPQLGTLYQHRFYDDPIWVTQRWLELLPLDSHLFESLVGAQDCRPALRFLNQAIEAPSNKEARILEHHHHHH | soluble |
| MKEVYRYAYHYAGRPVGEGRLEVERRRGGVRASLQAEFLPPLPPGRQRWQTELDAEGFSLRFQERVEGKEVRVFAVERLEEEGVVLVSQGKESLAYPYLAPYHDPLSLFLALPGLALEPGEVVRFPMPGGRVYVERLPDVEVEGRARRQYRLRPGLSLVQVEEGRLVRVAQQVGRHVFEAVLLEAEGP | soluble |
